Molecular target: the molecule itself
Experiment: SEC-MALS

B1: hFcµ-tFcµ-chi3 with Cys414 mutated (domain or fragment)
chain: TAIRVFAIPPSFASIFLTKSTKLTCLVTDLTTYDSVTISWTRQNGEAVKTHTNISESHPNATFSAVGEASIAEDDWNSGERFTCTVTHTDLPSPLKQTISRPKGVALHRPDVYLLPPAREQLNLRESATITCLVTGFSPADVFVQWMQRGQPLSPEKYVTSAPMPEPQAPGRYFAHSILTVSEEEWNTGETYTCVVAHEALPNRVTERTVDRTSNQPNLVNLSLNVPQRCMAQ
Question: How did the “pentamer:monomer ratio” value turn out when B1 was run?
Answer: 14%
